Legend:
[1] = target: NADPH-cytochrome P-450 oxidoreductase purified from Sorghum bicolor (Sorghum bicolor)
[2] = target: NADPH-cytochrome P-450 oxidoreductase purified from Sorghum bicolor (Sorghum bicolor); remark: listed apart in the source

oxime production in reconstitution experiments in dilaurylphosphatidylcholine micelles (turnover rate) (nmol oxime per nmol P-450TYR per minute) [1]	conversion of L-tyrosine to p-hydroxyphenylacetaldehyde oxime by the enzyme reconstituted in DLPC micelles (turn-over number) [2]	Molecule
349		modified cytochrome P-450TYR, in which the 35 N-terminal amino acids are replaced by the nine N-terminal amino acids from bovine 17alpha hydroxylase, expressed in E. coli (from UniProt P05185) (enzyme)
	228 min⁻¹	cytochrome P-450TYR from Sorghum bicolor (L.) Moench (enzyme) ATMEVEAAAATVLAAPLLSSSAILKLLLFVVTLSYLARALRRPRKSTTKCSSTTCASPPAGVGNPPLPPGPVPWPVVGNLPEMLLNKPAFRWIHQMMREMGTDIACVKLGGVHVVSITCPEIAREVLRKQDANFISRPLTFASETFSGGYRNAVLSPYGDQWKKMRRVLTSEIICPSRHAWLHDKRTDEADNLTRYVYNLATKAATGDVAVDVRHVARHYCGNVIRRLMFNRRYFGEPQADGGPGPMEVLHMDAVFTSLGLLYAFCVSDYLPWLRGLDLDGHEKIVKEANVAVNRLHDTVIDDRWRQWKSGERQEMEDFLDVLITLKDAQGNPLLTIEEVKAQSQDITFAAVDNPSNAVEWALAEMVNNPEVMAKAMEELDRVVGRERLVQESDIPKLNYVKACIREAFRLHPVAPFNVPHVALADTTIAGYRVPKGSHVILSRTGLGRNPRVWDEPLRFYPDRHLATAASDVALTENDLRFISFSTGRRGCIAASLGTAMSVMLFGRLLQGFTWSKPAGVEAVDLSESKSDTFMATPLVLHAEPRLPAHLYPSISI
